Measurements as given in IntAct's records for PubMed 23273425.

B1: Splicing factor 1 (Homo sapiens), Q15637 (parent)
chain: MATGANATPLDFPSKKRKRSRWNQDTMEQKTVIPGMPTVIPPGLTREQERAYIVQLQIEDLTRKLRTGDLGIPPNPEDRSPSPEPIYNSEGKRLNTREFRTRKKLEEERHNLITEMVALNPDFKPPADYKPPATRVSDKVMIPQDEYPEINFVGLLIGPRGNTLKNIEKECNAKIMIRGKGSVKEGKVGRKDGQMLPGEDEPLHALVTANTMENVKKAVEQIRNILKQGIETPEDQNDLRKMQLRELARLNGTLREDDNRILRPWQSSETRSITNTTVCTKCGGAGHIASDCKFQRPGDPQSAQDKARMDKEYLSLMAELGEAPVPASVGSTSGPATTPLASAPRPAAPANNPPPPSLMSTTQSRPPWMNSGPSESRPYHGMHGGGPGGPGGGPHSFPHPLPSLTGGHGGHPMQHNPNGPPPPWMQPPPPPMNQGPHPPGHHGPPPMDQYLGSTPVGSGVYRLHQGKGMMPPPPMGMMPPPPPPPSGQPPPPPSGPLPPWQQQQQQPPPPPPPSSSMASSTPLPWQQNTTTTTTSAGTGSIPPWQQQQAAAAASPGAPQMQGNPTMVPLPPGVQPPLPPGAPPPPPPPPPGSAGMMYAPPPPPPPPMDPSNFVTMMGMGVAGMPPFGMPPAPPPPPPQN

Variants of: B1
Details: with U2AF2, P26368
U2AF2, P26368, sequence (P26368 whole entry): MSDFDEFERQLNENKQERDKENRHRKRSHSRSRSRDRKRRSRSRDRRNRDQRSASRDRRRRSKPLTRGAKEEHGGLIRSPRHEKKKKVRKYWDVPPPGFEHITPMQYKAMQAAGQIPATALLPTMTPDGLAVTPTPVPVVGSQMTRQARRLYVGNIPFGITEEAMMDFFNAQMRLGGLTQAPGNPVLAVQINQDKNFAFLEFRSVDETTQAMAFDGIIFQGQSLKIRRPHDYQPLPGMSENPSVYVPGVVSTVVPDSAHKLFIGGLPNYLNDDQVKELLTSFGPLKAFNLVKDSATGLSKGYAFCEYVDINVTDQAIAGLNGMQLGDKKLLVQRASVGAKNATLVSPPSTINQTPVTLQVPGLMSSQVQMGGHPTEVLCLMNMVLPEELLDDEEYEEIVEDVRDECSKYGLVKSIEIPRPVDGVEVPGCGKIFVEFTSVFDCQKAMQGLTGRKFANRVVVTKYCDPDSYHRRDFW

Variant	effect of a mutation on the interaction
I40R;I53R	decreasing interaction strength
R46D	decreasing interaction strength
W22A	disrupting interaction strength

Other lines, results leading:

effect of a mutation on the interaction	Variant
decreasing interaction strength	R93E;R97E;R100E
decreasing interaction strength	S80A;S82A
